Positions of bridges follow the written chain, without caps; N, C: chain ends. No end group written: not given here. Some results are limits rather than exact numbers.

In experiment [1] the target is human BKα channel ZERO isoform (human) (UniProt Q12791). Put plainly: cell-based or functional assay.
The target is the same in experiment [2]. Put plainly: phagemid display panning, positive selection on HEK293 cells expressing human BKα ZERO; enrichment over the theoretical frequency in the library.

In experiment [1], CRRGLVQVC (disulfide 1-9; also: TFA salt) [LS3] yielded a suppression of channel openings (patch clamp, HEK293 cells) (fraction of openings suppressed) of 0.67. The fold enrichment of its motifs in the phagemid panning in experiment [2] was greater than 1000 fold. On to CARGVYRVC (disulfide 1-9) [LS1], for which, in experiment [1], the probability of opening, combination of pskan1 and pskan4, 10 microM, outside-out patches worked out at 1.6 fold. For CPPGRGAVC (disulfide 1-9) [LS4], the probability of opening, combination of pskan1 and pskan4, 10 microM, outside-out patches in experiment [1] worked out at 1.6 fold.
